# B1: Wnt9B: Recombinant Wnt peptide purchased from R&D systems (protein, UniProt O14905 23-357, looked up)
# Protein Wnt-9b: SYFGLTGREVLTPFPGLGTAAAPAQGGAHLKQCDLLKLSRRQKQLCRREPGLAETLRDAAHLGLLECQFQFRHERWNCSLEGRMGLLKRGFKETAFLYAVSSAALTHTLARACSAGRMERCTCDDSPGLESRQAWQWGVCGDNLKYSTKFLSNFLGSKRGNKDLRARADAHNTHVGIKAVKSGLRTTCKCHGVSGSCAVRTCWKQLSPFRETGQVLKLRYDSAVKVSSATNEALGRLELWAPARQGSLTKGLAPRSGDLVYMEDSPSFCRPSKYSPGTAGRVCSREASCSSLCCGRGYDTQSRLVAFSCHCQVQWCCYVECQQCVQEELVYTCKH
# B2: Wnt5A: Recombinant Wnt peptide purchased from R&D systems (protein, UniProt P41221 62-380, looked up)
# Protein Wnt-5a: IIGAQPLCSQLAGLSQGQKKLCHLYQDHMQYIGEGAKTGIKECQYQFRHRRWNCSTVDNTSVFGRVMQIGSRETAFTYAVSAAGVVNAMSRACREGELSTCGCSRAARPKDLPRDWLWGGCGDNIDYGYRFAKEFVDARERERIHAKGSYESARILMNLHNNEAGRRTVYNLADVACKCHGVSGSCSLKTCWLQLADFRKVGDALKEKYDSAAAMRLNSRGKLVQVNSRFNSPTTQDLVYIDPSPDYCVRNESTGSLGTQGRLCNKTSEGMDGCELMCCGRGYDQFKTVQTERCHCKFHWCCYVKCKKCTEIVDQFVCK
# Legend:
# [1] = system: β-catenin translocation to the nucleus; assay: β-catenin immunocytochemistry and nuclear co-localization analysis, PC3; assay type: cell-based; details: for Pearson coefficient of nuclear co-localization of β-catenin / expression of β-catenin (immunofluorescence), visible in the nucleus: PC3 cells; for Pearson coefficient of nuclear co-localization of β-catenin: Wnt 100 ng/ml vs control, p<0.001 Mann Whitney test; for expression of β-catenin (immunofluorescence), visible in the nucleus: Wnt ligand 100 ng/ml vs vehicle
# Method: (§1) Immunostaining was performed in two different laboratories, independently with the experimenter blind to the identity of the treatment. Either cells used in FluoroDish, post [Ca^2+]i experiments using dyes (see above) or grown in 8 well chamber glass slides (Lab Tek II, Nunc) were used. For Wnt ligand treatment, the culture medium replaced with PBS (without calcium) at 37° C. The experiments were replicated for Wnt ligand or vehicle control as described for [Ca^2+]i measurements. Briefly, Wnt ligands were added and chamber slides incubated at 37° C. for up to 20 min. Chamber wells were washed 3× with 0.5 ml PBS and cells were fixed with 0.5 ml 4% formalin for 30 min at 4° C. Cells were washed 3× with ice cold PBS and stored in 0.5 ml PBS at 4° C. for immunostaining. In some experiments PC3 cells were treated with thaspsigargin as described above.
# For immunostaining cells were washed twice for 5 minutes in TBST (20 mM Tris pH 7.4, 0.9% NaCl, 0.1% Tween 20, Sigma). Cells were then incubated in 20% normal goat serum (NGS)/TBST for 30 min at room temperature, the chambers were drained and cells were incubated with mouse anti-β-catenin (ab22656, Abcam, UK) at 1:500 dilution in NGS/TBST overnight at 4° C. Following two further 5 min washes in TBST sections were incubated in goat anti-mouse peroxidase fab (Abcam, UK) at 1:500 dilution for 30 min at room temperature. Following a further two 5 min washes in TBST cells were incubated with tyramide Cy3 (Perkin Elmer) for 10 min at room temperature. Sections were washed twice for 5 min in TBST before nuclear counterstaining with DAPI. After a final two 5 min washes, the chambers were removed and cover slip placed on slides using Permafluor (Thermo Shandon).
# Fluorescence immunocytochemical staining for β-catenin expression in cell lines was imaged using Olympus Fluoview 1000 Confocal Microscope (Olympus KeyMed) mounted on an Olympus IX81 inverted microscope using a 20×0.7 NA or 40×1.0 NA dry objective with a zoom of ×3.4′,6-diamidino-2-phenylindole (DAPI, nuclear counterstain) was excited at 405 nm with an emission of 415-500 nm; Cy3 (β-catenin label) signal was excited at 561 nm with an emission spectrum between 570-670 nm. […] Z-stacks of at least 3 fields per sample were imaged and saved in Olympus FV (OIF or OIB) file format.
# (§2) Nuclear co-localization of β-catenin was calculated by importing FV files for untreated, control or treated cells, into colocalization plugin of Fiji software (http://fiji.sc/Fiji) for Cy3 (β-catenin) and DAPI (nuclear) signals. Pearson co-relation of colocalization were tabulated for 25-90 cells (from 2-5 different passages of cells) using ROI analysis. Statistical significance between untreated and treated cells was calculated using Mann Whitney U test.
# [2] = system: MCF7 breast cancer cell line; assay: Live [Ca2+]i imaging after addition of Wnt ligand, MCF7; assay type: cell-based, human; details: MCF7 cells
# Method: (§3) The imaging protocol was developed in the inventor's laboratory and has been described in detail, elsewhere (Wang at al., (2010) PLoS ONE 5, e10456). Briefly, 100000-200000 PC3, MCF7, 253J or Cos 7 cells were plated on 35 mm FluoroDish (WPI) and grown for 48 h; calcium indicators Fluo-4 (Invitrogen) and FuraRed (Invitrogen) at 1 ng/ml were added to FluoroDish containing only 1 ml of culture medium and incubated for 15-20 min at 37° C. The culture medium was removed and washed (×2) and replaced with 1 ml PBS. Live cell calcium Imaging was performed on an Olympus FluoView FV 1000 confocal microscope (Olympus […]) equipped with a 20× dry objective (numerical aperture=0.75). Calcium indicators were excited with an argon laser line (488 nm) and emissions recorded in the green channel (500-560 nm) for Fluo-4 and red channel (600-700 nm) for FuraRed after addition of vehicle control (PBS) or Wnt X (30-600 ng/ml). Images were acquired every 1.1 or 2.2 seconds for up to 600-800s; image and data acquisition was performed using FluoView 1000 software (Olympus, UK). Fluorescent intensity was measured and data exported as a tab delimited file for further analysis using a spreadsheet. All imaging experiments were performed in duplicate; intracellular calcium at 100 ng/ml was measured in at least 3-12 different passages (passage numbers 25 to 37) of cell line for each Wnt ligand. Wnt 11 was tested in at least 5 different passages at 3 different concentrations. […] The measurements were exported as a tab delimited file into a spreadsheet for further analysis and Fluo4/Fura Red ratios were calculated. […] The time constants (rise, dwell and fall times) were calculated by first fitting the Fluo4/FuraRed ratio to a single Gaussian function (Origin Lab Corp., MA); a lower (10%) and upper (90%) amplitude thresholding method was then used to calculate the time constants (s). Statistical significance was calculated using Mann Whitney U test.
# [3] = system: 253J urinary tract (bladder) cancer cell line; assay: Live [Ca2+]i imaging after addition of Wnt ligand, 253J; assay type: cell-based, human; details: 253J cells
# Method: as §3
# [4] = system: β-catenin translocation to the nucleus; assay: β-catenin immunocytochemistry, 253J; assay type: cell-based, human; details: 253J bladder cancer cell line
# Method: as §1
# (§4) For immunostaining cells were washed twice for 5 minutes in TBST (20 mM Tris pH 7.4, 0.9% NaCl, 0.1% Tween 20, Sigma). Cells were then incubated in 20% normal goat serum (NGS)/TBST for 30 min at room temperature, the chambers were drained and cells were incubated with mouse anti-β-catenin (ab22656, Abcam, UK) at 1:500 dilution in NGS/TBST overnight at 4° C. […]
# (§5) Fluorescence immunocytochemical staining for β-catenin expression in cell lines was imaged using Olympus Fluoview 1000 Confocal Microscope (Olympus KeyMed) mounted on an Olympus IX81 inverted microscope using a 20×0.7 NA or 40×1.0 NA dry objective with a zoom of ×3.4′,6-diamidino-2-phenylindole (DAPI, nuclear counterstain) was excited at 405 nm with an emission of 415-500 nm; Cy3 (β-catenin label) signal was excited at 561 nm with an emission spectrum between 570-670 nm. […]
# as §2, with “Pearson co-relation of colocalization were tabulated for 25-90 cells (from 2-5 different passages of cells) using ROI analysis.” left out
# [5] = system: β-catenin translocation to the nucleus; assay: β-catenin immunocytochemistry, MCF7; assay type: cell-based, human; details: MCF7 breast cancer cell line
# Method: as §1, §4, §5
# as §2, with “Pearson co-relation of colocalization were tabulated for 25-90 cells (from 2-5 different passages of cells) using ROI analysis.” left out
molecule,measurement,setting,value
"C/C=C(/C)C(=O)O[C@H]1C(C)=C2[C@H]([C@@H]1OC(=O)CCCCCCC)[C@@](C)(OC(C)=O)C[C@H](OC(=O)CCC)[C@@]1(O)[C@H]2OC(=O)[C@@]1(C)O [thapsigargin, reference compound]",translocation of β-catenin into the nucleus after inhibition of Wnt induced [Ca2+]i release,[1]; PC3 cells incubated with thapsigargin,reduced the translocation of β-catenin into the nucleus
Wnt10B: Recombinant Wnt peptide purchased from R&D systems,[Ca2+]i release in response to Wnt ligand,[2],activated [Ca^2+]i release
same,[Ca2+]i release in response to Wnt ligand,[3],activated [Ca^2+]i release
same,Pearson coefficient of nuclear co-localization of β-catenin,[1],significant increase
same,"expression of β-catenin (immunofluorescence), visible in the nucleus",[1],visibly increased
same,β-catenin translocation into the nucleus after Wnt treatment,[4],β-catenin translocation into the nucleus
same,β-catenin translocation into the nucleus after Wnt treatment,[5],β-catenin translocation into the nucleus
B1,[Ca2+]i release in response to Wnt ligand,[2],activated [Ca^2+]i release
same,[Ca2+]i release in response to Wnt ligand,[3],activated [Ca^2+]i release
same,Pearson coefficient of nuclear co-localization of β-catenin,[1],significant increase
same,"expression of β-catenin (immunofluorescence), visible in the nucleus",[1],visibly increased
same,β-catenin translocation into the nucleus after Wnt treatment,[4],β-catenin translocation into the nucleus
same,β-catenin translocation into the nucleus after Wnt treatment,[5],β-catenin translocation into the nucleus
B2,[Ca2+]i release in response to Wnt ligand,[2],activated [Ca^2+]i release
same,[Ca2+]i release in response to Wnt ligand,[3],activated [Ca^2+]i release
same,Pearson coefficient of nuclear co-localization of β-catenin,[1],significant increase
same,"expression of β-catenin (immunofluorescence), visible in the nucleus",[1],visibly increased
same,β-catenin translocation into the nucleus after Wnt treatment,[4],β-catenin translocation into the nucleus
same,β-catenin translocation into the nucleus after Wnt treatment,[5],β-catenin translocation into the nucleus

# From patent publication US20160271157A1, “BETA-CATENIN” (UCL BUSINESS PLC, priority 2013, published 2016)
